Our source for the response values is article PMC11341946.

The test addresses RNA polymerase II. The test is described as follows: Re-ChIP (IP ERα then IP PolII), real time qPCR. The settings on record: HEK293T cells, read off a plot.
The mark [1] stands for this setting: complement C3 enhancer, cadmium (2 µM) for 60 minutes.
Setting [2] is: complement C3 enhancer, control (untreated).
[3] abbreviates: complement C3 enhancer, estradiol (100 nM) for 60 minutes.
Where [4] appears, read: lactoferrin enhancer, cadmium (2 µM) for 60 minutes.
Setting [5] is: lactoferrin enhancer, control (untreated).
[6] abbreviates: lactoferrin enhancer, estradiol (100 nM) for 60 minutes.

As for “wild-type estrogen receptor alpha (from UniProt P03372) D538G”, the response is 0.019 % Input under setting [1]; 0.0076 % Input under setting [2]; 0.0077 % Input under setting [3]; 0.014 % Input under setting [4]; 0.0046 % Input under setting [5]; 0.0061 % Input under setting [6].

Turning to “wild-type estrogen receptor alpha (from UniProt P03372) Y537S”, the response came out at 0.015 % Input under setting [1]; 0.0065 % Input under setting [2]; 0.0073 % Input under setting [3]; 0.0063 % Input under setting [4]; 0.0022 % Input under setting [5]; 0.0022 % Input under setting [6].
